The results in this text go back to US20220389118A1 (Chugai, published 2022).

Changes are numbered by the printed parent chain. Numbers in names are those of the source.

Assay [1] concerns the target T1, human FcγRIa extracellular domain with C-terminal His tag (human, UniProt P12314 16-292).
T1 construct: extracellular domain; also called FcgRIa
Nature of the assay: SPR (Biacore), binding amount. On the technique in general: SPR reads the build-up and loss of mass on a sensor chip optically.
T1 sequence (P12314 16-292): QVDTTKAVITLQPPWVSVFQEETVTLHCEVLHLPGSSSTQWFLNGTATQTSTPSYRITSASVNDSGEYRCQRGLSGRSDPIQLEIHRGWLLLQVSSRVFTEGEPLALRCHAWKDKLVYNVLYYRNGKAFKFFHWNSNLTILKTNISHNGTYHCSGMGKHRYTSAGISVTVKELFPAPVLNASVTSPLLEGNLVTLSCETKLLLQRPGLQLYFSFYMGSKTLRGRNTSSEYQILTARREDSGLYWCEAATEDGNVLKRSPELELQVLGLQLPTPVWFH

Assay [2] has as its target T2, human FcγRIIa type H extracellular domain with C-terminal His tag (human, UniProt P12318 34-217).
T2 construct: extracellular domain; also called FcγRIIaH; FcgRIIaH
T2 sequence (looked up): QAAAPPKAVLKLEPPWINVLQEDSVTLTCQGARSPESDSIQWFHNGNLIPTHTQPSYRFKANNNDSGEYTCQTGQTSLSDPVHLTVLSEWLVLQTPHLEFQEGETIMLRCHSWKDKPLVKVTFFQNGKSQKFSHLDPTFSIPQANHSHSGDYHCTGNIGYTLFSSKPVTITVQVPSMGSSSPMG
Description: SPR (Biacore), binding amount.

In assay [3] the target is T3, human FcγRIIIa type V extracellular domain with C-terminal His tag (human, UniProt P08637 17-208).
T3 construct: extracellular domain; also called FcγRIIIaV; FcgRIIIaV
Description: SPR (Biacore), binding amount.
T3 sequence (P08637 17-208 F176V): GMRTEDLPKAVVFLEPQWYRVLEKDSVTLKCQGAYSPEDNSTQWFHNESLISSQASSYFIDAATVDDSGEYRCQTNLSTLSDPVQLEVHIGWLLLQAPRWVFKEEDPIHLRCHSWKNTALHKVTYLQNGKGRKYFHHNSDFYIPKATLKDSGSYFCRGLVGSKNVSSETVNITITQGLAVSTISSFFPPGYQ

Assay [4] has as its target T4, human FcγRIIb extracellular domain with C-terminal His tag (human, UniProt P31994 43-217).
T4 construct: extracellular domain; also called FcgRIIb
T4 sequence (looked up): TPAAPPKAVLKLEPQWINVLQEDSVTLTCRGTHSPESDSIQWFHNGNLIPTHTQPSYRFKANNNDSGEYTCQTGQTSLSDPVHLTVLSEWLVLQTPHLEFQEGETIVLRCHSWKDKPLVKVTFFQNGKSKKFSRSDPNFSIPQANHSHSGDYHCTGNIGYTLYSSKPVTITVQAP
Description: SPR (Biacore), binding amount.

Assay [5] concerns the target T5, human FcγRIIa type R extracellular domain with C-terminal His tag (human, UniProt P12318 34-217).
T5 construct: extracellular domain; also called FcγRIIaR; FcgRIIaR
T5 sequence (looked up): T2 sequence (looked up) with H134R
Nature of the assay: SPR (Biacore), binding amount.

In assay [6] the target is T6, human FcγRIIa type R extracellular domain with C-terminal His tag (human, UniProt P12318 34-217).
T6 construct: extracellular domain; also called FcγRIIaR; FcγRIIa R
T6 sequence (looked up): T2 sequence (looked up) with H134R
Description: SPR, amount of binding. The text has this: (§1) These variants were expressed and purified by the method of Reference Example 2. These Fc variants are called PD variants. Interactions of each PD variant with FcγRIIa type R and FcγRIIb were comprehensively evaluated by the method of Reference Example 25.

Assay [7] concerns the target T7, human FcγRIIb extracellular domain with C-terminal His tag (human, UniProt P31994 43-217).
T7 construct: extracellular domain; for crystals expressed with kifunensine and trimmed with Endo F1; also called FcγRIIb extracellular region
T7 sequence (looked up): T4 sequence (looked up)
Nature of the assay: SPR, amount of binding.
Text: as §1

In assay [8] the target is T8, human FcγRIIb extracellular domain with C-terminal His tag (human, UniProt P31994 43-217).
T8 construct: extracellular domain
T8 sequence (looked up): T4 sequence (looked up)
Description: SPR (Biacore).

The target of assay [9] is T9, human FcγRIa extracellular domain with C-terminal His tag (human, UniProt P12314 16-292).
T9 construct: extracellular domain
Nature of the assay: SPR (Biacore).
T9 sequence (P12314 16-292): as the sequence (P12314 16-292) above

Assay [10] has as its target T10, human FcγRIIa type R extracellular domain with C-terminal His tag (human, UniProt P12318 34-217).
T10 construct: extracellular domain; also called FcγRIIaR; FcγRIIa(R)
T10 sequence (looked up): T2 sequence (looked up) with H134R
Description: SPR (Biacore).

Assay [11] has as its target T11, human FcγRIIIa type V extracellular domain with C-terminal His tag (human, UniProt P08637 17-208).
T11 construct: extracellular domain; also called FcγRIIIaV; FcγRIIIa(V)
Description: SPR (Biacore).
T11 sequence (P08637 17-208 F176V): as the sequence (P08637 17-208 F176V) above

The target of assay [12] is T12, human IgE (human).
T12 construct: Recombinant human IgE used as the antigen; its variable region is from an anti-human glypican 3 antibody; held on the chip by a biotinylated GPC3 peptide; also called hIgE
T12 sequence (heavy, as listed by the source, chain 1 of 2, other chains not shown): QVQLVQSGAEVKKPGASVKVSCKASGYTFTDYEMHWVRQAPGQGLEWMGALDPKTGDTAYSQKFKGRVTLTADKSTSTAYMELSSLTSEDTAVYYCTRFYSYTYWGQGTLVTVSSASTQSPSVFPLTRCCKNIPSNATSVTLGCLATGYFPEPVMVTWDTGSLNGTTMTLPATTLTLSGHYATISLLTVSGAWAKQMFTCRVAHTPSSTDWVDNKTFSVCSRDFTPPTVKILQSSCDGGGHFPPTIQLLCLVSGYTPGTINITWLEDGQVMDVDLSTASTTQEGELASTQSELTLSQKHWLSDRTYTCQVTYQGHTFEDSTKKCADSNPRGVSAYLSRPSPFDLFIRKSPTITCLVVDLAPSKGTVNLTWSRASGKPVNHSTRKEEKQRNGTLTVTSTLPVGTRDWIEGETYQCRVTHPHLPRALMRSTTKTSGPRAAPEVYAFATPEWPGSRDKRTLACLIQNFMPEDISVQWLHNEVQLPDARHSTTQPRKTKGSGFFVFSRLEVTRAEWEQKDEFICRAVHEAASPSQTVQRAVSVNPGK
Description: SPR (Biacore T200), human IgE held on SA chip by biotinylated GPC3 peptide, antibody as analyte, 37 C; pH7.4, 1.2 mM Ca; pH 7.4. As for the experimental part: (§2) Measurements were carried out using the following three types of running buffers:
(§3) An appropriate concentration of human IgE was injected and captured by the biotinylated GPC3 peptide to immobilize human IgE on the chip. […] Then, 10 mmol/L glycine-HCl (pH 1.5) was injected to regenerate the sensor chip. All of the assay for the interaction was performed at 37° C. Using Biacore T200 Evaluation Software (GE Healthcare), the assay results were analyzed by curve fitting to determine the binding rate constant ka (1/Ms) and dissociation rate constant kd (1/s). Dissociation constant KD (M) was calculated from the above constants.

For assay [13], the target named is T12, human IgE. Description: SPR (Biacore T200), human IgE held on SA chip by biotinylated GPC3 peptide, antibody as analyte, 37 C; pH5.8, 1.2 mM Ca; pH 5.8. As for the experimental part: as §2, §3
Assay [14] concerns the target T12, human IgE. Description: SPR (Biacore T200), human IgE held on SA chip by biotinylated GPC3 peptide, antibody as analyte, 37 C; pH5.8, 3 µM Ca; pH 5.8. As for the experimental part: as §2, §3
The target of assay [15] is T12, human IgE. Description: SPR (Biacore T200), human IgE held on SA chip by biotinylated GPC3 peptide, antibody as analyte, 37 C; pH7.4, 1.2 mM Ca; pH7.4, 1.2 mM Ca; 37 C; pH 7.4. As for the experimental part: as §2, §3
For assay [16], the target named is T6, human FcγRIIa type R extracellular …. Nature of the assay: SPR.
The target in assay [17] is T7, human FcγRIIb extracellular domain with …. Nature of the assay: SPR.

B1: IL6R-BP198/IL6R-L (antibody, human IgG1, kappa)
heavy: QVQLQESGPGLVKPSETLSLTCAVSGHSISHDHAWSWVRQPPGEGLEWIGFISYSGITNYNPSLQGRVTISRDNSKNTLYLQMNSLRAEDTAVYYCARSLARTTAMDYWGEGTLVTVSSASTKGPSVFPLAPSSKSTSGGTAALGCLVKDYFPEPVTVSWNSGALTSGVHTFPAVLQSSGLYSLSSVVTVPSSSLGTQTYICNVNHKPSNTKVDKKVEPKSCDKTHTCPPCPAPDYLGGDSVFLFPPKPKDTLMISRTPEVTCVVVDVSDEDGEVKFNWYVDGVEVHNAKTKPREEQYNSTYRVVSVLTVLHQDWLNGKEYKCKVSNAALPKPIEKTISKAKGQPREPQVYTLPPSRDELTKNQVSLTCLVKGFYPSDIAVEWESNGQPENNYKTTPPVLDSDGSFFLYSKLTVDKSRWQQGNVFSCSVMHEALHNHYTQESLSLSP
light: not shown
notes: EU numbering; alterations on IL6R-B3; copies: 2 + 2
As for B1, the relative binding activity in [1] is 104 % of IL6R-BF648/IL6R-L; in assay [2], 188 % of IL6R-BF648/IL6R-L; in assay [3] it was 157 % of IL6R-BF648/IL6R-L; in assay [4], 164 % of IL6R-BF648/IL6R-L; in assay [5] it was 449 % of IL6R-BF648/IL6R-L.

B2: IL6R-F652/IL6R-L (antibody, human IgG1, kappa)
heavy: B1 heavy with D235E, Y236L, M254Y, D270H, G273P, A328K, K332A, N436Y, E441K
light: not shown
notes: IL6R-F11 with P238D (EU numbering); copies: 2 + 2
Turning to B2, the “relative binding activity” value in assay [6] and in assay [7] was 100 IL6R-F652/IL6R-L = 100 in each case.

B3: IL6R-BP253/IL6R-L (antibody, human IgG1, kappa)
heavy: B1 heavy with D235E, Y236L, D240P, S269E, D270H, G273P, A328K, L330F, K332A
light: not shown
notes: Comparison control with existing alterations; copies: 2 + 2
Consider B3, for which the Kd (as a rule, the concentration at which binding is half-saturated) worked out at 11 nM in assay [8], 0.067 nM in [9], 2.1 nM in assay [10] and 3600 nM in assay [11].

B4: 278-IgG1 (antibody, V domains shown)
VH: QSLEESGGRLVTPGTPLTLTCTASGFSLSSYHMSWVRQAPGKGLEWIGVINSAGNTYYASWAKGRFTVSKTSTTVDLNLTSLTTEDTATYFCARYVFSSGSHDIWGPGTLVTVSS
VL: AYDMTQTPASVEVAVGGTVTIKCQASQSIGSWLAWYQQKPGQPPKELIYGTSTLESGVPSRFIGSGSGTEFTLTISGVECADAATYYCQQGYSEDNIDNAFGGGTEVVVKR
notes: pH-dependent anti-human IgE antibody
Take B4: the koff (usually the rate constant with which the complex falls apart) in the assay with human IgE [12] was found to be 0.0036 s⁻¹; with human IgE [13], 0.23 s⁻¹; in the assay with human IgE [14] it was 0.24 s⁻¹. Further, the kon (commonly a measure of how fast the partners come together) came out at 120000 M⁻¹ s⁻¹ with human IgE [13], 62000 M⁻¹ s⁻¹ in the assay with human IgE [14] and 1.5e+06 M⁻¹ s⁻¹ in the assay with human IgE [15].

B5: IL6R-BP478/IL6R-L (antibody)
heavy: QVQLQESGPGLVKPSETLSLTCAVSGHSISHDHAWSWVRQPPGEGLEWIGFISYSGITNYNPSLQGRVTISRDNSKNTLYLQMNSLRAEDTAVYYCARSLARTTAMDYWGEGTLVTVSSASTKGPSVFPLAPCSRSTSESTAALGCLVKDYFPEPVTVSWNSGALTSGVHTFPAVLQSSGLYSLSSVVTVPSSSLGTKTYTCNVDHKPSNTKVDKRVESKYGPPCPPCPAPDLLGDDSVFLFPPKPKDTLMISRTPEVTCVVVDVSDEDGEVKFNWYVDGVEVHNAKTKPREEQDNSTYRVVSVLTVLHQDWLNGKEYKCKVSNKALPRPIEKTISKAKGQPREPQVYTLPPSRDELTKNQVSLTCLVKGFYPSDIAVEWESNGQPENNYKTTPPVLDSDGSFFLYSKLTVDKSRWQQGNVFSCSVMHEALHNHYTQESLSLSP
light: not shown
notes: IL6R-BP230 in which Ala118-Thr225 (EU numbering) is replaced by Ala118-Pro222 of G4d; copies: 2 + 2
On to B5, for which the “fold against IL6R-BP230/IL6R-L” value in assay [16] and in assay [17] was 1.1 fold in each case.
